From article PMC2132842 (The Journal of Cell Biology, 1998)

Columns and labels:
GAL4/Imp βΔ1/261 = GAL4/Imp βΔ1/261 (human, UniProt Q14974 262-876); assay: two-hybrid
GAL4/CAS = molecular target: T1, GAL4/CAS (human, UniProt P55060 1-971); assay: two-hybrid
T1 sequence (looked up): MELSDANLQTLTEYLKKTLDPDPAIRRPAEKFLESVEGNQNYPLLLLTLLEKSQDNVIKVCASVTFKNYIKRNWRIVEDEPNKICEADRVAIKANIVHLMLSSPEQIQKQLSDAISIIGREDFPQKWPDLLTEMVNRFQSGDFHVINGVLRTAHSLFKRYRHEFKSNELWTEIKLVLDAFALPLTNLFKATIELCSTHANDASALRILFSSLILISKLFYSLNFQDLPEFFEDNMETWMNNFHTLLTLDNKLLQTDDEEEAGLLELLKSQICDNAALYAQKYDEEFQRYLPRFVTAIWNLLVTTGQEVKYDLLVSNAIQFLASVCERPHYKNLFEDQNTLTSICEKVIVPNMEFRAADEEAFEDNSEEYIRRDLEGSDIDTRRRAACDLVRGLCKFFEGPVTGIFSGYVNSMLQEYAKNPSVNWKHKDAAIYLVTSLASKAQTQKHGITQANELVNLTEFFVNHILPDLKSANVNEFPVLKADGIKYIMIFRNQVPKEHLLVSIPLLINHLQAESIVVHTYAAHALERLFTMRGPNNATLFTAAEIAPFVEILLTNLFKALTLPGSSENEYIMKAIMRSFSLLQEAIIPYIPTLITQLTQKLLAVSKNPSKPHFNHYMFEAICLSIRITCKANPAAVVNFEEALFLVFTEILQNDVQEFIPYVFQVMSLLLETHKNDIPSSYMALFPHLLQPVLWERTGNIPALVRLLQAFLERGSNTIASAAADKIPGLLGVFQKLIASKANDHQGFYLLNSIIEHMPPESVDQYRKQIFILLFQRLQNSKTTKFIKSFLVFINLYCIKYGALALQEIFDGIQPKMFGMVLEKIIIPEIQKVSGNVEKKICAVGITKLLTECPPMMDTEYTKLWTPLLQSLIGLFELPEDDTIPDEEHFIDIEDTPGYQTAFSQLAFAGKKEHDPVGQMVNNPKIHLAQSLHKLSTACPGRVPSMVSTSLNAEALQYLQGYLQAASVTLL

Sequence of GAL4/Imp βΔ1/261 (Q14974 262-876, stated change not applied): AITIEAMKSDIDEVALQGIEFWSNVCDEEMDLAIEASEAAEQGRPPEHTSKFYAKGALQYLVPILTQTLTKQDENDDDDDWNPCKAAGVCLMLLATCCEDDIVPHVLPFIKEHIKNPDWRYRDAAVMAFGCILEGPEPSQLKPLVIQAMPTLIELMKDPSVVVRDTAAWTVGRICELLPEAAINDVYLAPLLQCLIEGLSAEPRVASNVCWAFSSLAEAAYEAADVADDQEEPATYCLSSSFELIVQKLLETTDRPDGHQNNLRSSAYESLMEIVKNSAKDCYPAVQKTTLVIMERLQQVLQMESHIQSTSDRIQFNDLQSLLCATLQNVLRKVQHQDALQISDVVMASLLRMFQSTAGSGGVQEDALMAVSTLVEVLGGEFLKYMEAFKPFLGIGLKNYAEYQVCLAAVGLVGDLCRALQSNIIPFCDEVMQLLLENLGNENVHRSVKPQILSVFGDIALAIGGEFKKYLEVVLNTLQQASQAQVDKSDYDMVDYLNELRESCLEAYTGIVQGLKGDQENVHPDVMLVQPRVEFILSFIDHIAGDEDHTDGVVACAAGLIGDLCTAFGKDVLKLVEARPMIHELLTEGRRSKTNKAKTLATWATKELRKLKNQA

Binder	β-gal activity (GAL4/Imp βΔ1/261) [mOD/ml]	β-gal activity (GAL4/CAS) [mOD/ml]
VP16/Imp α4 (natural protein, human, UniProt O00505 1-521, looked up) MAENPSLENHRIKSFKNKGRDVETMRRHRNEVTVELRKNKRDEHLLKKRNVPQEESLEDSDVDADFKAQNVTLEAILQNATSDNPVVQLSAVQAARKLLSSDRNPPIDDLIKSGILPILVKCLERDDNPSLQFEAAWALTNIASGTSAQTQAVVQSNAVPLFLRLLRSPHQNVCEQAVWALGNIIGDGPQCRDYVISLGVVKPLLSFISPSIPITFLRNVTWVIVNLCRNKDPPPPMETVQEILPALCVLIYHTDINILVDTVWALSYLTDGGNEQIQMVIDSGVVPFLVPLLSHQEVKVQTAALRAVGNIVTGTDEQTQVVLNCDVLSHFPNLLSHPKEKINKEAVWFLSNITAGNQQQVQAVIDAGLIPMIIHQLAKGDFGTQKEAAWAISNLTISGRKDQVEYLVQQNVIPPFCNLLSVKDSQVVQVVLDGLKNILIMAGDEASTIAEIIEECGGLEKIEVLQQHENEDIYKLAFEIIDQYFSGDDIDEDPCLIPEATQGGTYNFDPTANLQTKEFNF	1850	174
VP16/Imp α1 (natural protein) not shown	2350	101
